Experimental data as given in paper PMC12412624, “Engineered Cas12j‐8 is a Versatile Platform for Multiplexed Genome Modulation in Mammalian Cells”.
Numbering of substitutions follows the chain as printed.

Key:
[1] = system: T1, dCas12j-8 E258R+D313R+D527R E258R;D313R;D527R;D369A;E567A;D658A (bacteriophage (metagenome)); conditions: HEK293T cells; panel 1e (compare within a panel only); scale: mean GFP / mean GFP of wild type, printed, no background subtraction
T1 sequence: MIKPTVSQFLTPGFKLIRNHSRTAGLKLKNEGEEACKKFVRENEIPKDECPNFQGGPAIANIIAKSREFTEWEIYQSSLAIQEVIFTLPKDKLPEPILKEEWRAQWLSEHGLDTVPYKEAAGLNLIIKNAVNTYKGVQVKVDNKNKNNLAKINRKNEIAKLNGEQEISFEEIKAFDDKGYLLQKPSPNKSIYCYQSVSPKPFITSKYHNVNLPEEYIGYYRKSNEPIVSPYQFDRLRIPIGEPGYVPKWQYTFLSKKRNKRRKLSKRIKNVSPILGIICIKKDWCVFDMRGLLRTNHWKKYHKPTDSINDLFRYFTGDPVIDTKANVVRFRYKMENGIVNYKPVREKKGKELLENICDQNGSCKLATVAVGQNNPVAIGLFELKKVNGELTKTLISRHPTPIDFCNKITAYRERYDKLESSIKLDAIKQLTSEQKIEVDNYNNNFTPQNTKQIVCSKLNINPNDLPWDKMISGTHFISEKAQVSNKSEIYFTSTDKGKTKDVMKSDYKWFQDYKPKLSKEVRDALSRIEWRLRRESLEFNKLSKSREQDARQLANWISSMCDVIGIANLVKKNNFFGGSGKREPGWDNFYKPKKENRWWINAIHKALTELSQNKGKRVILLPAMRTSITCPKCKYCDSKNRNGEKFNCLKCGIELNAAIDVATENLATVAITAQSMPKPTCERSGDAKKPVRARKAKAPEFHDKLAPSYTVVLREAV

[2] = system: T2, dCas12j-8 E31R E31R;D369A;E567A;D658A (bacteriophage (metagenome)); conditions: HEK293T cells; panel 1c (compare within a panel only); scale: mean GFP / mean GFP of wild type, printed, no background subtraction
T2 sequence: T1 sequence with E31R, R258E, R313D, R527D

[3] = system: T3, dCas12j-8 E242R E242R;D369A;E567A;D658A (bacteriophage (metagenome)); conditions: HEK293T cells; panel 1c (compare within a panel only); scale: mean GFP / mean GFP of wild type, printed, no background subtraction
T3 sequence: T1 sequence with E242R, R258E, R313D, R527D

[4] = system: T4, dCas12j-8 D416R D416R;D369A;E567A;D658A (bacteriophage (metagenome)); conditions: HEK293T cells; panel 1c (compare within a panel only); scale: mean GFP / mean GFP of wild type, printed, no background subtraction
T4 sequence: T1 sequence with R258E, R313D, D416R, R527D

Which binding signal [1] does the source give for “CUUUCAAGACUAAUAGAUUGCUCCUUACGAGGAGACACUCCCUAUCAGUGAUAGAG / TTNACTCCCTATCAGTGATAGAG / CTCTATCACTGATAGGGAGTNAA [TetO]” here?
The binding signal was 5.09.

What about the binding signal [2] of the same sequence?
Its binding signal is 0.82.

And the binding signal [3]?
The binding signal was 0.683.

And the binding signal [4]?
Its binding signal is 0.46.
